# Measurements as given in IntAct's records for PubMed 19395483.
# B1: ATP-dependent protease ATPase subunit HslU (Escherichia coli (strain K12)), P0A6H5 (parent)
# chain: MSEMTPREIVSELDKHIIGQDNAKRSVAIALRNRWRRMQLNEELRHEVTPKNILMIGPTGVGKTEIARRLAKLANAPFIKVEATKFTEVGYVGKEVDSIIRDLTDAAVKMVRVQAIEKNRYRAEELAEERILDVLIPPAKNNWGQTEQQQEPSAARQAFRKKLREGQLDDKEIEIDLAAAPMGVEIMAPPGMEEMTSQLQSMFQNLGGQKQKARKLKIKDAMKLLIEEEAAKLVNPEELKQDAIDAVEQHGIVFIDEIDKICKRGESSGPDVSREGVQRDLLPLVEGCTVSTKHGMVKTDHILFIASGAFQIAKPSDLIPELQGRLPIRVELQALTTSDFERILTEPNASITVQYKALMATEGVNIEFTDSGIKRIAEAAWQVNESTENIGARRLHTVLERLMEEISYDASDLSGQNITIDADYVSKHLDALVADEDLSRFIL
# partner: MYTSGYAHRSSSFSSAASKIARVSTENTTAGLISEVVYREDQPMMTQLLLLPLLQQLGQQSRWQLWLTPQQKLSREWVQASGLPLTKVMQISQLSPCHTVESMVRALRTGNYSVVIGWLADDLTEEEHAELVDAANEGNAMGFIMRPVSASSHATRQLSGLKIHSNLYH
# Variants of: B1
# Conditions: with sula_ecoli sulA
row,Variant,effect of a mutation on the interaction
1,I186N,disrupting interaction strength
2,V89I,increasing interaction strength
